Reference: publication PMC2276513
Non-standard residues stand in square brackets, D forms with d. No end group written: not given here. *: point of attachment. Acm = CC(=O)NC*

Target: IGF-I receptor (human (endogenous in HT-29)) (UniProt P08069)
Chain of UniProt P08069 (P08069 31-1367): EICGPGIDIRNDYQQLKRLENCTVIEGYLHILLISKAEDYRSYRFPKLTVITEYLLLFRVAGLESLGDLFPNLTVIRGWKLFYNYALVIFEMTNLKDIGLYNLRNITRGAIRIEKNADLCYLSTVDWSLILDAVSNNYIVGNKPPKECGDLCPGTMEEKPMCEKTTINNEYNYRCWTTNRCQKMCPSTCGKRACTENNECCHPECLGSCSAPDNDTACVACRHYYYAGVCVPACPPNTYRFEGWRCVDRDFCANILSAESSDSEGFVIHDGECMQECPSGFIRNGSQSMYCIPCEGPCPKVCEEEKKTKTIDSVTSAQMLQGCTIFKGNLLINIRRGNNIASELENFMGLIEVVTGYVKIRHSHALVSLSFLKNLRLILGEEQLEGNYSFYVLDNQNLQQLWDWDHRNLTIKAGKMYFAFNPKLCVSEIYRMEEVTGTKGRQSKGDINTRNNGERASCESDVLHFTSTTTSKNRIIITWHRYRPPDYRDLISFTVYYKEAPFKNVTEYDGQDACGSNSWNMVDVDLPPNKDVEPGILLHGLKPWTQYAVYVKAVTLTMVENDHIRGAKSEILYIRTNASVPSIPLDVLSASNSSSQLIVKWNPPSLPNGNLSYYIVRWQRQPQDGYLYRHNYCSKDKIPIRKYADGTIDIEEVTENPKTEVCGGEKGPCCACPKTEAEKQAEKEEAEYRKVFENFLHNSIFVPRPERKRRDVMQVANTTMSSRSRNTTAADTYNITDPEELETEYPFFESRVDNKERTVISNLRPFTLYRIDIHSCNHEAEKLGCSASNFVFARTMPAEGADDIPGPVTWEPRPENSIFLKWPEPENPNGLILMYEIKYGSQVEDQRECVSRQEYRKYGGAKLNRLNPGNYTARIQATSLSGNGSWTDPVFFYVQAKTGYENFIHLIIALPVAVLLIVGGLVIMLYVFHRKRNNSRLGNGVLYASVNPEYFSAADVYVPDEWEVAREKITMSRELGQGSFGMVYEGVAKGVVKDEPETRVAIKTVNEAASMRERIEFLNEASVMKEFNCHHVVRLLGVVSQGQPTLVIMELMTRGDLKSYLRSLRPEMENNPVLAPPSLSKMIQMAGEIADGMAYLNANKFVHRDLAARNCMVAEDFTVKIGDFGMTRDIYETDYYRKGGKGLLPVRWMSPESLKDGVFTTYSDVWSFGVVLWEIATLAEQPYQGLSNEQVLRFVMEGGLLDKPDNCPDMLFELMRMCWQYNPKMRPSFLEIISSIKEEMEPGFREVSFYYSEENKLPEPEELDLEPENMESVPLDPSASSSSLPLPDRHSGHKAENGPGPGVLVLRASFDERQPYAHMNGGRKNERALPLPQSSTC

B1: IGF-I D domain analogue peptide (M1557) (peptide)
peptide: [dY]C(Acm)[dA][dP][dL][dK][dP][dA][dK][dS][dA]-NH2
modifications: N-terminus assumed
SMILES: CC(=O)NCSC[C@H](NC(=O)[C@H](N)Cc1ccc(O)cc1)C(=O)N[C@H](C)C(=O)N1CCC[C@@H]1C(=O)N[C@H](CC(C)C)C(=O)N[C@H](CCCCN)C(=O)N1CCC[C@@H]1C(=O)N[C@H](C)C(=O)N[C@H](CCCCN)C(=O)N[C@H](CO)C(=O)N[C@H](C)C(N)=O
Q: How did the proliferation of HT-29 cells (modified Alamar Blue assay), 48 h with 0.001-1 uM M1557 in medium with 10% FBS: percent inhibition turn out when B1 was run?
A: 14 to 15%
